{
  "source": "paper doi:10.1101/2021.10.04.463074",
  "origin": "cited, not measured here",
  "target": "Asp85 (UniProt position 98, WARYADWLFTT)",
  "conditions": "resting (ground) state of bR, protonated Schiff base, all-trans retinal",
  "data": [
    {"substance": "Bacteriorhodopsin (bR) (Halobacterium salinarum (named Halobacterium halobium only in titles of cited references))", "values": [
      {"measurement": "pKa", "value": "2 to 3"}
    ]}
  ]
}
